Results on one molecule are retold here after article PMC12548662.

The target of this test is Recombinant human α-centractin with an N-terminal His6 tag (human) (UniProt P61163).
Chain of UniProt P61163 (P61163 whole entry): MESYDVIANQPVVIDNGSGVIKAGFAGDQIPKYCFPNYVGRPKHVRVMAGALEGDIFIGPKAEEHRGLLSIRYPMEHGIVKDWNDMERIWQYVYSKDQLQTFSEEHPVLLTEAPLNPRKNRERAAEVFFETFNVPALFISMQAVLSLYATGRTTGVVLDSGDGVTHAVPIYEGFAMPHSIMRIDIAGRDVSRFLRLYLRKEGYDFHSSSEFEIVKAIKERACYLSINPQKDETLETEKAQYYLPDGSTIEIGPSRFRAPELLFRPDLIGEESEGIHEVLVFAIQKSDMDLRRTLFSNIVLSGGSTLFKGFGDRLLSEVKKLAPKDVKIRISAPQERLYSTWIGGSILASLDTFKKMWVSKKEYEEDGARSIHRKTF

B1: Recombinant His6-tagged human SETD3 (wild-type) (enzyme)
chain: MGKKSRVKTQKSGTGATATVSPKEILNLTSELLQKCSSPAPGPGKEWEEYVQIRTLVEKIRKKQKGLSVTFDGKREDYFPDLMKWASENGASVEGFEMVNFKEEGFGLRATRDIKAEELFLWVPRKLLMTVESAKNSVLGPLYSQDRILQAMGNIALAFHLLCERASPNSFWQPYIQTLPSEYDTPLYFEEDEVRYLQSTQAIHDVFSQYKNTARQYAYFYKVIQTHPHANKLPLKDSFTYEDYRWAVSSVMTRQNQIPTEDGSRVTLALIPLWDMCNHTNGLITTGYNLEDDRCECVALQDFRAGEQIYIFYGTRSNAEFVIHSGFFFDNNSHDRVKIKLGVSKSDRLYAMKAEVLARAGIPTSSVFALHFTEPPISAQLLAFLRVFCMTEEELKEHLLGDSAIDRIFTLGNSEFPVSWDNEVKLWTFLEDRASLLLKTYKTTIEEDKSVLKNHDLSVRAKMAIKLRLGEKEILEKAVKSAAVNREYYRQQMEEKAPLPKYEESNLGLLESSVGDSRLPLVLRNLEEEAGVQDALNIREAISKAKATENGLVNGENSIPNGTRSENESLNQESKRAVEDAKGSSSDSTAGVKE
In the case of B1, the KM of SETD3 for α-centractin (0.2–5 µM), radiochemical methyltransferase assay, 5 min at 37 °C with 1 µM [1H+3H]SAM amounted to 3.83 µM.
